Laboratory results as given in PMC12363165 (2025).

B1: Vpu with LgBiT fused to its C-terminus (pBiT1.1-C-vpu) [HIV-1] / RBM10 fused to SmBiT (pBiT2.1-C-rbm10) [human] (parent complex)
chain 1: MQPIQIAIAALVVAIIIAIVVWSIVIIEYRKILRQRKIDRLIDRLIERAEDSGNESEGEISALVEMGVEMGHHAPWDIDDL
chain 2: MEYERRGGRGDRTGRYGATDRSQDDGGENRSRDHDYRDMDYRSYPREYGSQEGKHDYDDSSEEQSAEDSYEASPGSETQRRRRRRHRHSPTGPPGFPRDGDYRDQDYRTEQGEEEEEEEDEEEEEKASNIVMLRMLPQAATEDDIRGQLQSHGVQAREVRLMRNKSSGQSRGFAFVEFSHLQDATRWMEANQHSLNILGQKVSMHYSDPKPKINEDWLCNKCGVQNFKRREKCFKCGVPKSEAEQKLPLGTRLDQQTLPLGGRELSQGLLPLPQPYQAQGVLASQALSQGSEPSSENANDTIILRNLNPHSTMDSILGALAPYAVLSSSNVRVIKDKQTQLNRGFAFIQLSTIVEAAQLLQILQALHPPLTIDGKTINVEFAKGSKRDMASNEGSRISAASVASTAIAAAQWAISQASQGGEGTWATSEEPPVDYSYYQQDEGYGNSQGTESSLYAHGYLKGTKGPGITGTKGDPTGAGPEASLEPGADSVSMQAFSRAQPGAAPGIYQQSAEASSSQGTAANSQSYTIMSPAVLKSELQSPTHPSSALPPATSPTAQESYSQYPVPDVSTYQYDETSGYYYDPQTGLYYDPNSQYYYNAQSQQYLYWDGERRTYVPALEQSADGHKETGAPSKEGKEKKEKHKTKTAQQIAKDMERWARSLNKQKENFKNSFQPISSLRDDERRESATADAGYAILEKKGALAERQHTSMDLPKLASDDRPSPPRGLVAAYSGESDSEEEQERGGPEREEKLTDWQKLACLLCRRQFPSKEALIRHQQLSGLHKQNLEIHRRAHLSENELEALEKNDMEQMKYRDRAAERREKYGIPEPPEPKRRKYGGISTASVDFEQPTRDGLGSDNIGSRMLQAMGWKEGSGLGRKKQGIVTPIEAQTRVRGSGLGARGSSYGVTSTESYKETLHKTMVTRFNEAQ

Variants of: B1
Assay: NanoBiT luciferase complementation reporter assay; HEK293T cells, co-transfection, read after 2 days; parent: 1; read off a plot
In the case of chain 1 D77A, the ratio to parent is reported as ~0.6. For chain 1 V25A, the ratio to parent was ~0.41. For chain 1 H73A, the ratio to parent was ~0.98. For chain 1 I26A, the ratio to parent was ~0.56. Variant chain 1 R34A has a ratio to parent of ~0.63.
